The results in this text go back to US20250197448A1 (UNIVERSITY OF ROCHESTER, published 2025).

For test [1], the target named is T1, integrin αvβ3 on the surface of MDA-MB-231 breast cancer cells (human, UniProt P06756 31-1048; P05106 27-788).
T1 construct: whole, on cells; also called integrin receptors on the cells
In words: flow cytometry on MDA-MB-231 cells, FITC anti-IgG1 Fc secondary. The method, then: Flow Cytometry Analysis. […] When confluent, media was aspirated, cells were washed once with 1×DPBS (no calcium, no magnesium) (Gibco). Adherent cells were detached from the petri dish with 1 mL of accutase (Gibco) pre-warmed to 37° C., followed by incubated for 5 min at 37° C. Cells were spun down using centrifugation. Supernatant was removed and cells were washed three times with staining buffer (1×PBS with 0.5% BSA). Cells were resuspended in Eppendorf tubes in 100 μL PBS at a concentration of […]. Cyclopeptibodies or Human anti-PD-L1 antibody (1 μg) (R&D Systems, MAB10355) in staining buffer were then added to the tubes with a concentration of 1.5 μM in 200 μL. Eppendorf tubes were then placed on the platform shaker for gently shaking for 1 hour at room temperature. After 1 hour, cells were spun down using centrifugation, then supernatant was removed. After washing three times, cells were resuspended in 200 μL of Fluorescein (FITC) AffiniPure Goat Anti-Human IgG with working concentration of 30 μg/mL (Jackson ImmunoResearch, 109-095-098), incubated in the dark for 30 min at room temperature. […] Then cells were analyzed on a BD FACS Accuri C6⁺ using a filter of 533/30. […]
The cyclopeptibody treated cells were then analyzed by flow cytometry using a procedure similar to that described for the PD-L1-targeting cyclopeptibodies in Example 9.
In general terms: Flow cytometry measures light scatter and fluorescence of single cells or particles in a stream.

Test [2] deals with T2, Sonic Hedgehog (Shh) (human, UniProt Q15465 24-197, limits assumed). In words: plate binding assay: immobilised Shh, FLAG-tagged binder titrated, HRP anti-FLAG detection.
Test [3] concerns the target T2, Sonic Hedgehog (Shh). Put plainly: plate binding assay with immobilised Shh. The procedure: After washing (3×150 μL of PBS with 0.05% Tween-20), each well was incubated with 100 μL of purified FLAG-tagged cyclopeptibody at varying concentrations for 1 hour at room temperature. After washing three times with wash buffer, each well was incubated with 100 μL of 1:2500 dilution of HRP-conjugate mouse anti-FLAG polyclonal antibody (Sigma-Aldrich) for 1 hour at room temperature. After washing three times with wash buffer, 100 μL of 2.2 mM o-phenylenediamine dihydrochloride, 4.2 mM urea hydrogen peroxide, 100 mM dibasic sodium phosphate, and 50 mM sodium citrate, pH 5.0, were added to each well, followed by measurement of the absorbance at 450 nm after 10-20 min using a Tecan Infinite 1000 plate reader. Equilibrium dissociation constants (Kp) were determined by fitting the dose-response curves to a 1:1 binding isotherm equation via nonlinear regression. using SigmaPlot. Mean values and standard deviations were calculated from experiments performed in triplicate.
To prepare a Hedgehog-targeting cyclopeptibody, a Shh-binding cyclic peptide previously developed via affinity maturation of a HHIP loop 2 mimic (Owens A E et al., 2017, J. Am. Chem. Soc., 139:12559-12568) was genetically fused to the Fc domain of human IgG1 via a spacer (Entry 5, Table 1). The resulting cyclopeptibody (called L2-m5-Tras-Fc) was expressed, purified, and characterized as described in Example 4. […]

Starred links: 1 amine or outer side, 2 acyl side, 3 side chain; linkers in the order of their positions; H or OH if unused. Positions of bridges follow the written chain, without caps; N, C: chain ends. Non-standard residues stand in square brackets, D forms with d. No end group written: not given here. O2beY = O-(2-bromoethyl)-tyrosine (p-2beF), reacts with Cys to form a thioether, O=C([C@H](Cc1ccc(OCCBr)cc1)N[*:1])[*:2]; pCaaF = p-(2-chloroacetamido)-phenylalanine, O=C(CCl)Nc1ccc(C[C@H](N[*:1])C(=O)[*:2])cc1 Where only a bound is given, the exact number is not on record here.

As a reminder, the Kd is a measure of binding affinity in units of concentration.

T1 sequence (P06756 31-1048, chain 1 of 2): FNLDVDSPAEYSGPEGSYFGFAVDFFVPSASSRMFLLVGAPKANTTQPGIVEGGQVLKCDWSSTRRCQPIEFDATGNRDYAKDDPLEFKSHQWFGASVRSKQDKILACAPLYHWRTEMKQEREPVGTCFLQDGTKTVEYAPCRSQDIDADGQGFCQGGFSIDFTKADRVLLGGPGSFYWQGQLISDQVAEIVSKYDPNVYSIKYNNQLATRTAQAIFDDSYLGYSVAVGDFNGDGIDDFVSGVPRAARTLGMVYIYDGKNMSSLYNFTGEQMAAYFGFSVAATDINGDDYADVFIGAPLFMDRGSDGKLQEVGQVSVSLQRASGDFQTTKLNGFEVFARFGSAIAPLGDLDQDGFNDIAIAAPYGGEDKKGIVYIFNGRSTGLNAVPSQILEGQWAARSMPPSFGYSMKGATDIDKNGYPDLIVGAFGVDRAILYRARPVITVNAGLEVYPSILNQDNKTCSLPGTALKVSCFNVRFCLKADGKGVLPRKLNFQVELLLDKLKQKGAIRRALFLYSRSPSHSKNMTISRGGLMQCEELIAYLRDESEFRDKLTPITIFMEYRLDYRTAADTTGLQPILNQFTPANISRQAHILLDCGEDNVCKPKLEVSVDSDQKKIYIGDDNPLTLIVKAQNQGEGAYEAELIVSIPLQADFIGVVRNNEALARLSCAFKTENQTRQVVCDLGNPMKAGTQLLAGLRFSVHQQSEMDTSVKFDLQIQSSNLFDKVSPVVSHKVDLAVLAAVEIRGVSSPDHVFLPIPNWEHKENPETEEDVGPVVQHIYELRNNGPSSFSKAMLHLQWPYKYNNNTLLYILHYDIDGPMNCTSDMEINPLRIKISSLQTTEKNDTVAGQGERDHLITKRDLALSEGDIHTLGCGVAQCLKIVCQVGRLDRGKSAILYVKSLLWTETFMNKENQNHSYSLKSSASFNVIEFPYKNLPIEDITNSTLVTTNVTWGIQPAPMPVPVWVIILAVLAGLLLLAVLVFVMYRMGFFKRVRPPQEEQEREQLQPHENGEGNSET
T1 sequence (P05106 27-788, chain 2 of 2): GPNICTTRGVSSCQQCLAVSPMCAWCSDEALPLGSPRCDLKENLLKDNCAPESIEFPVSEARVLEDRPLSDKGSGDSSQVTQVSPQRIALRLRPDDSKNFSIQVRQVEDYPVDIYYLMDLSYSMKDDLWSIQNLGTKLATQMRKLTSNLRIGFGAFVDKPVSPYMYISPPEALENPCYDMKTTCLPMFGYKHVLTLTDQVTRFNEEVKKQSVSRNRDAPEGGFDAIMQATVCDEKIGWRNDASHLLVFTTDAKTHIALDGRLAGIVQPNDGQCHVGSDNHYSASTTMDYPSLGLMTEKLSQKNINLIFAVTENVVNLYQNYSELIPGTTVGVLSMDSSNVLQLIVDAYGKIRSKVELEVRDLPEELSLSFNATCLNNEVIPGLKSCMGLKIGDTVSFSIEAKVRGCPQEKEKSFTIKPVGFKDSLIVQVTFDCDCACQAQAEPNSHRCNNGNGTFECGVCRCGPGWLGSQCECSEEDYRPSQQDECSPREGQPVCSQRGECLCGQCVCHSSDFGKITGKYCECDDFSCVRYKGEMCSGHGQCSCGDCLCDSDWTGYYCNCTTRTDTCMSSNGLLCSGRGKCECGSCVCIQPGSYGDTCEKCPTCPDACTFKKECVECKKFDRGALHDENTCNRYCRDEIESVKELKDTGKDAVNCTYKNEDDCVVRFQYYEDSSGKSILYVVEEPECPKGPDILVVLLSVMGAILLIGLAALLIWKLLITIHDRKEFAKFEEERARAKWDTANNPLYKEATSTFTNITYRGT

B1: RGD5R (pCaaF)-Tras-Fc (Fc fusion)
chain: DYKDDDDKGSGSCRDRGDY[pCaaF]QQQQQQIEGR-{Fc-H6}
modifications: thioether 13-20; also: dimeric through the Fc
notes: Integrin-targeting cyclopeptibody; dimeric through the human IgG1 Fc; also called cRGD5R (pCaaF)-Tras-Fc
On to B1, for which, in test [1], the binding result is on record as “binds”.

B2: L2-m5-Tras-Fc (Fc fusion)
chain: DYKDDDDKGSGSTLSW[O2beY]EAMDMCTSSQQQQQQ-{Fc-H6}
modifications: thioether 17-23; also: dimeric through the Fc
notes: Cyclic peptide fused through a (Gln)6 spacer to human IgG1 Fc; dimeric through the Fc; made in E. coli; also called FLAG-(GS)2-TLSWZEAMDMCTSS-(Q)6-(Fc)^1-H6
For the molecule B2, the affinity with Sonic Hedgehog (Shh) [2], expressed as Kd, was 7 nM. Moreover, the “fold improved affinity against the same cyclic peptide fused to CBD” value with Sonic Hedgehog (Shh) [3] is over 55 fold.
